The source of these data is PMC3505834 (Nature immunology, 2012).

The experiment has as its target T1, recombinant soluble CD46 (CCP1-4) (human, UniProt P15529 35-285).
T1 sequence (looked up): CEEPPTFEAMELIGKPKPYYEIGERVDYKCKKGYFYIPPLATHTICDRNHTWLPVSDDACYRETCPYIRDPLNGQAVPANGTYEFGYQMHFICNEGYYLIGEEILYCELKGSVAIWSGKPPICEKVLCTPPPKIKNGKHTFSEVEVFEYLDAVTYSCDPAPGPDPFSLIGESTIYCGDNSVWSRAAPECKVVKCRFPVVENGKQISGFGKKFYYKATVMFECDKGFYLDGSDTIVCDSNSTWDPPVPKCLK
Description: SPR. Background: Surface plasmon resonance follows binding to a sensor surface in real time, without labels.

B1: J-1_(DSL-EGF3), recombinant Jagged1 construct of the DSL and first three EGF-like domains (domain or fragment)
chain: not shown
modifications: c-terminally biotinylated
Regarding B1, the Kd was roughly 8 µM.

Broadly, the Kd is the constant that tells how readily two partners part at equilibrium.
